Here are results for 4 molecules from patent US20210032331A1 (PHANES THERAPEUTICS, published 2021).

One test concerns the target T1, B7/IgG4.
T1 construct: Chimeric: mouse VH and VL with human IgG4 heavy chain and kappa light chain constant regions; also called B7 (human IgG4 heavy chain and kappa light chain chimeric)
In words: ELISA peptide competition: peptide preincubated with B7/IgG4, competitor hLAG3-mFc; final incubation 60 min at room temperature; anti-mouse IgG-HRP. On the procedure:
(§1) B5/IgG4 was preincubated with a competition peptide for 30 minutes. Then human LAG-3 extracellular domain (ECD) fused to mouse Fc (hLAG3-mFc) was added (the final peptide concentration was 600-fold that of hLAG3-mFc) and the mixture was incubated for 60 minutes before being added to an ELISA plate coated with anti-human IgG. The incubation was carried out at 4° C. overnight. After washing, the hLAG3-mFc bound to the immobilized B5/IgG4 on the ELISA plate was detected by adding anti-mouse IgG conjugated to horseradish peroxidase (HRP) and incubating for 60 minutes. Then, after washing, the ELISA was developed using One-step Detection Solution and measured as the absorbance at 450 nm.
The assay condition is the same as in FIG. 5A except that the final incubation of the mAb, the competition peptide, and hLAG3-mFc on the ELISA plate was performed at room temperature for 60 minutes instead of incubation at 4° C. overnight.
Anti-human IgG in carbonate coating buffer was coated on an ELISA plate at 4° C. (50 μL/well at 1 μg/mL) overnight. In each well of a separate plate, a chimeric version of a given anti-LAG-3 mAb (50 μL/well at 1.4 nM) and a competition peptide (50 μL/well at various concentrations as indicated in the figures) were mixed and incubated for 30 minutes at room temperature. Then human LAG-3 extracellular domain (ECD) fused to mouse Fc (hLAG3-mFc) was added to each well (50 μL/well at 2 nM) and the final mixture was incubated at room temperature for 60 minutes before added to the ELISA plate (50 μL/well) for another 60-minute incubation.
In general terms: An ELISA detects its analyte on a solid surface through an enzyme-linked reagent.

The target in the next test is T2, human LAG-3(ECD)-mFc (human, UniProt P18627 23-450).
T2 construct: also called hLAG3-mFc; human LAG-3 extracellular domain (ECD) fused to mouse Fc; not shown: mouse Fc
T2 sequence: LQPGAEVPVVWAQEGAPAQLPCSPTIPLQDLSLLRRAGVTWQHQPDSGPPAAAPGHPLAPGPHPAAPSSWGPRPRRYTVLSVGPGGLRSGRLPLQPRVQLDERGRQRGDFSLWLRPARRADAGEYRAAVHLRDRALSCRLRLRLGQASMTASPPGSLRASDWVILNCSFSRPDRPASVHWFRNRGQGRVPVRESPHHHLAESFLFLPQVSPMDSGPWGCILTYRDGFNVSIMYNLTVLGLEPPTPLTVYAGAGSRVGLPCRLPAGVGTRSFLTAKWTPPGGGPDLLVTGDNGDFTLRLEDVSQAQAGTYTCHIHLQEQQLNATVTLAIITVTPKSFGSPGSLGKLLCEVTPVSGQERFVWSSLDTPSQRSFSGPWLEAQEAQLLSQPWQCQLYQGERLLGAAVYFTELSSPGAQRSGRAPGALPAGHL
In words: ELISA: chimeric IgG1 B12 with hLAG3-mFc in solution, captured on anti-human IgG, anti-mouse IgG-HRP. As for the experimental part: as §1, with “FIGS. 5A-5D show the effect of competition peptides on LAG-3 binding to anti-LAG-3 mAbs. […] B5/IgG4 was” for “B5/IgG4 was”
Anti-human IgG in carbonate coating buffer was coated on an ELISA plate at 4° C. (50 μL/well at 1 μg/mL) overnight. […] The plate was washed and the binding of hLAG3-mFc to the immobilized anti-LAG-3 mAb was detected by adding anti-mouse IgG conjugated to horseradish peroxidase ([…]) (ThermoFisher Scientific, Cat#: A16084; Waltham, Mass.) and incubating for 60 minutes.

T1 sequence (VH, as listed by the source): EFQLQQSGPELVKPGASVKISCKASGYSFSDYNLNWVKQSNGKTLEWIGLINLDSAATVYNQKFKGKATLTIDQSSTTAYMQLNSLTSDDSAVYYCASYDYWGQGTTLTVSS

PHPAAPSSWGPR (also called peptide 15-26) [15-26]: the binding result with B7/IgG4 was “no binding (tested: 600-fold hLAG3-mFc)”.

B1: B12 (human IgG1 heavy chain and kappa light chain chimeric) (antibody, V domains shown)
VH: EVKLLESGGSLVQPGGSLKLSCAASGFDFSRYWMSWVRQAPGKGLEWIGEINPDSSTINYTPSLRDEFIISRDNAKNTLFLQMSKVISEDTALYYCARITSGYYFDYWGQGTTLTVSS
VL: DVVMTQTPLSLPVSLGDQASISCRSSQTIVYSNGNTYLYWYLQKPGQSPKLLIYRVSNRFPGVPDRFSGSGSGTDFTLKISGVEAEDMGVYYCFQGTHVPFTFGSGTKLEMK
notes: Chimeric: mouse VH and VL with human IgG1 heavy chain and kappa light chain constant regions
Turning to B1, the binding result with human LAG-3(ECD)-mFc is “binds”. Regarding SSWGPRPRRY (also called peptide 21-30) [21-30], in the test with B7/IgG4, the binding result is recorded as “no binding (tested: 600-fold hLAG3-mFc)”. Regarding PSSWGPRPRRY (also called peptide 20-30) [20-30], the binding result with B7/IgG4 is recorded as “no binding (tested: 600-fold hLAG3-mFc)”.
